Measured values: paper PMC5024299

Tested on: Pho4 (Saccharomyces cerevisiae)
Experiment: SELMAP (microfluidic SELEX-seq)
Conditions: last round; On-chip SELMAP: 71-bp dsDNA library (20 ul, 50 uM) flowed 20 min over immobilised TF, MITOMI trapping, DNase 200 U/mL, PBS wash; binding buffer, pH and …

## Pho4 consensus 6-mer CACGTG in 12-mer library
  binding signal (frequency ratio score): 220
